For 1 substance, decrease of GIRK1* current (two-electrode voltage clamp, Xenopus oocytes coexpressing GIRK1* and Gβγ) 40-50 min after injection of purified His-phosducin to ~23 µM results are on record in PMC6346094.

The assay has as its target Gβγ (bovine) (UniProt P62871).

In turn, “His-tagged phosducin (from UniProt P19632 1-245) (natural protein)” had a decrease of GIRK1* current (two-electrode voltage clamp, Xenopus oocytes coexpressing GIRK1* and Gβγ) 40-50 min after injection of purified His-phosducin to ~23 µM of 74%.
